Experiments:
B-Defensin-3 [1] = biological target: T1, B-Defensin-3 (Homo sapiens (Human), UniProt P81534 23-67, not fully specified); assay: SPR (Biacore 8K), 1 µM antibody over immobilized protein, blank subtracted
T1 construct: also called β-defensin
T1 peptide: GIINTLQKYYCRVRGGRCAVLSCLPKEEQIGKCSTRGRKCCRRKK
Method: (§1) Non-specific binding of the lead molecule to unrelated surfaces is determined by biosensor technology (Biacore 8K). Antibody is passed over SPR surfaces coated with unrelated proteins. […] Lead molecule is tested at the final concentration of 1 μM. Irrelevant surfaces include negatively charged protein (Soy Trypsin Inhibitor), positively charged protein (Lysozyme and β-defensin), hydrophobic (Rh-integrin a4b7), human IgG, sticky protein (Rh-CD19). Proper controls are used in this experiment. Lead is flown over two surfaces, one is a blank and the other has a molecule directly immobilized. The response unit (RU) level is determined by subtracting the blank RU from the test surface RU. The RU of TMCB150 and the parental mAbs are given below in the table. A response unit ≥100 predicts high risks for non-specific binding to charged/hydrophobic/IgG surfaces which would create challenges during manufacturing and translate to poor PK properties. None of the antibodies show non-specific binding to irrelevant surfaces predicting low to no risks for manufacturing and in-vivo behavior.

rh-CD19 [2] = biological target: T2, rh-CD19 (UniProt P15391 20-291, limits assumed); assay: as above
T2 construct: 'rh-' is not explained
T2 sequence (looked up): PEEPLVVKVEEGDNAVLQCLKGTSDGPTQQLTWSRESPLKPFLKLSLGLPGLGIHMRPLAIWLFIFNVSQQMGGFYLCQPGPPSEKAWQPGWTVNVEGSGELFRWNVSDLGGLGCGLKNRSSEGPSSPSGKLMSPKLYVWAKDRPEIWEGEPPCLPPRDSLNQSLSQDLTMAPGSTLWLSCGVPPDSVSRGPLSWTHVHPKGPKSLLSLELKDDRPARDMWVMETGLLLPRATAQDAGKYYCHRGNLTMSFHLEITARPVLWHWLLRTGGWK
Method: as §1

Soy Trypsin Inhibitor = biological target: T3, Soy Trypsin Inhibitor (soy); assay: as above
T3 construct: also called STI
Method: as §1

Human IgG = assay: as above
Method: as §1

rh-Integrin a4b7 [3] = biological target: T4, rh-Integrin a4b7 (UniProt P13612 34-977; P26010 20-723); assay: as above
T4 construct: 'rh-' is not explained
Method: as §1

Lysozyme = assay: as above
Method: as §1

B-Defensin-3 [4] = biological target: T1, B-Defensin-3; assay: SPR (Biacore 8K), antibody passed over immobilized protein
Method: as §1

rh-CD19 [5] = biological target: T2, rh-CD19; assay: as above
Method: as §1

rh-Integrin a4b7 [6] = biological target: T4, rh-Integrin a4b7; assay: as above
Method: as §1

Lysozyme, sequence (P00698 19-147): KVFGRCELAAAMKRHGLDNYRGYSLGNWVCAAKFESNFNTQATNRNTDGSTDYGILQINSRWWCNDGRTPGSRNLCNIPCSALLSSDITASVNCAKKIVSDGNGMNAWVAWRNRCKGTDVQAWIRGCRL
T4 sequence (P13612 34-977, chain 1 of 2): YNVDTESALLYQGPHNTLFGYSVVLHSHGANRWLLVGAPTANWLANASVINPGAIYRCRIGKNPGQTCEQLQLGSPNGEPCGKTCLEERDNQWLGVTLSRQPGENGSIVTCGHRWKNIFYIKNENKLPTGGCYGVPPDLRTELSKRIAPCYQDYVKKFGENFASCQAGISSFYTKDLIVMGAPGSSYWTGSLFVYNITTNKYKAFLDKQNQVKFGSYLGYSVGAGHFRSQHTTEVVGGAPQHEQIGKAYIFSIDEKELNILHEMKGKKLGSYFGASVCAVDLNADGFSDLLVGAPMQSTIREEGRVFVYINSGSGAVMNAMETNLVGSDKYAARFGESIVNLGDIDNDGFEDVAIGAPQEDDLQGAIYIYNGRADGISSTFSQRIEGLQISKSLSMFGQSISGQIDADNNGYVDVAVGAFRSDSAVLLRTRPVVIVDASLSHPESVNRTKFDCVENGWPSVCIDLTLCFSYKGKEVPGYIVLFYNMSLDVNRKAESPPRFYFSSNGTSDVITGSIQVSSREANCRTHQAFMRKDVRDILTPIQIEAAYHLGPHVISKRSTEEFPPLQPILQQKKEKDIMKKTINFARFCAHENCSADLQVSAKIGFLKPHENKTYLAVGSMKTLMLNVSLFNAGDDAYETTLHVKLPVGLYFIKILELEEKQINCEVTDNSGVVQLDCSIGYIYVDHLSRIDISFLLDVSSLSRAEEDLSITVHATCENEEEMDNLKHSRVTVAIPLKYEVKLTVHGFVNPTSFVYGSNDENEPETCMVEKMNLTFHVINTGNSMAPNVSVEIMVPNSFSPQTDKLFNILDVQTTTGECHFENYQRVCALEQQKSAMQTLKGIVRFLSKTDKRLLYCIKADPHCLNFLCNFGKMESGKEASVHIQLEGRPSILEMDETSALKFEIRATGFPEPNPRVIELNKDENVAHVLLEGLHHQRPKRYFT
T4 sequence (P26010 20-723, chain 2 of 2): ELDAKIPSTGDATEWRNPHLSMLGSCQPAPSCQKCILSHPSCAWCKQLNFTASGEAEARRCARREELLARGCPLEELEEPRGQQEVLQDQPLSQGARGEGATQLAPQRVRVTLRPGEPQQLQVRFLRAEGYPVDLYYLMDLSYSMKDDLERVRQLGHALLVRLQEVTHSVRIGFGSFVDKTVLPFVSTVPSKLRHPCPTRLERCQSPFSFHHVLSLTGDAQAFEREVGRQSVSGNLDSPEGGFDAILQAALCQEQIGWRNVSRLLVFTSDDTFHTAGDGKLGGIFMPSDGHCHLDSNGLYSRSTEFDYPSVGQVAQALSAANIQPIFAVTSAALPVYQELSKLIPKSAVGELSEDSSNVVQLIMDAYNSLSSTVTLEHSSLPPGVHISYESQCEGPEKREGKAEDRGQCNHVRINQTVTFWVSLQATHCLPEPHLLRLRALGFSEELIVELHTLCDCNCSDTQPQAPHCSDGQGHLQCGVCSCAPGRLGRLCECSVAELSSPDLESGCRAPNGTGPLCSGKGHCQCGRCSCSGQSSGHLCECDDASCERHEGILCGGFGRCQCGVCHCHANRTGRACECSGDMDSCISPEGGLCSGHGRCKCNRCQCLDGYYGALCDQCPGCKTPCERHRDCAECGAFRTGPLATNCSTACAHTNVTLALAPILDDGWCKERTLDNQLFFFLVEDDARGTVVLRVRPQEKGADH
T3 sequence (P01070 25-205): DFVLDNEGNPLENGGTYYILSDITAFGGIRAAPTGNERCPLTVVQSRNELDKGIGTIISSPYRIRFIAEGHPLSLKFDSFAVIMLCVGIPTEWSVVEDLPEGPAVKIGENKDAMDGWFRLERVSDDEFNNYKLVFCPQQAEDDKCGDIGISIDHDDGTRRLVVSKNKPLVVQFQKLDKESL

B1: TMCB150 (bispecific antibody, human IgG4 S228P, kappa, lambda, F234A L235A)
heavy 1: not shown
light 1: not shown
heavy 2: QVQLQQSGPRLVRPSQTLSLTCAISGDSVFNNNAAWSWIRQSPSRGLEWLGRTYYRSKWLYDYAVSVKSRITVNPDTSRNQFTLQLNSVTPEDTALYYCARGYSSSFDYWGQGTLVTVSSASTKGPSVFPLAPCSRSTSESTAALGCLVKDYFPEPVTVSWNSGALTSGVHTFPAVLQSSGLYSLSSVVTVPSSSLGTKTYTCNVDHKPSNTKVDKRVESKYGPPCPPCPAPEAAGGPSVFLFPPKPKDTLMISRTPEVTCVVVDVSQEDPEVQFNWYVDGVEVHNAKTKPREEQFNSTYRVVSVLTVLHQDWLNGKEYKCKVSNKGLPSSIEKTISKAKGQPREPQVYTLPPSQEEMTKNQVSLTCLVKGFYPSDIAVEWESNGQPENNYKTTPPVLDSDGSFLLYSKLTVDKSRWQEGNVFSCSVMHEALHNHYTQKSLSLSLGK
light 2: QSALTQPASVSGSPGQSITISCTGTSSNIGTYKFVSWYQQHPDKAPKVLLYEVSKRPSGVSSRFSGSKSGNTASLTISGLQAEDQADYHCVSYAGSGTLLFGGGTKLTVLGQPKAAPSVTLFPPSSEELQANKATLVCLISDFYPGAVTVAWKADSSPVKAGVETTTPSKQSNNKYAASSYLSLTPEQWKSHRSYSCQVTHEGSTVEKTVAPTECS
notes: made by Fab arm exchange of the parental IgG4PAA mAbs, so the chains are those of TMEB762 (HC 91, LC 92) and CD3B376 (HC 78, LC 79); also called TMEB762xCD3B376; bispecific anti-TMEFF2/CD3 antibody
response unit (RU) (B-Defensin-3 [1]): 6.4 RU
response unit (RU) (rh-CD19 [2]): 3.4 RU
response unit (RU) (Soy Trypsin Inhibitor): 1.6 RU
response unit (RU) (Human IgG): 7.5 RU
response unit (RU) (rh-Integrin a4b7 [3]): 0 RU
response unit (RU) (Lysozyme): 4.2 RU
binding result (B-Defensin-3 [4]): no binding
binding result (rh-CD19 [5]): no binding
binding result (rh-Integrin a4b7 [6]): no binding

B2: TMEB762 (antibody, human IgG4 S228P, kappa, F234A L235A, V domains shown)
VH: EVQLLESGGGLVQPGGSLRLSCAASGFTFSSYSMSWVRQAPGKGLEWVSVISGSGGFTDYADSVKGRFTISRDNSKNTLYLQMNSLRAEDTAVYYCARMPLNSPHDYWGQGTLVTVSS
VL: DIQMTQSPSSLSASVGDRVTITCRASQGIRNDLGWYQQKPGKAPKLLIYAASSLQSGVPSRFSGSGSGTDFTLTISSLQPEDFATYYCLQDYNYPLTFGGGTKVEIKR
notes: IgG4PAA; re-engineered variant of TMEB675 (HC R14P, P20L, H81Q; LC A1D, A91P, Kabat); Bivalent TMEFF2 parent of TMCB150; also called anti-TMEFF2 antibody; VH TMEH459
response unit (RU) (B-Defensin-3 [1]): 4.1 RU
response unit (RU) (rh-CD19 [2]): 3.3 RU
response unit (RU) (Soy Trypsin Inhibitor): 0 RU
response unit (RU) (Human IgG): 8.4 RU
response unit (RU) (rh-Integrin a4b7 [3]): 0 RU
response unit (RU) (Lysozyme): 4.6 RU
binding result (B-Defensin-3 [4]): no binding
binding result (rh-CD19 [5]): no binding
binding result (rh-Integrin a4b7 [6]): no binding

B3: CD3B376 (antibody, V domains shown)
VH: QVQLQQSGPRLVRPSQTLSLTCAISGDSVFNNNAAWSWIRQSPSRGLEWLGRTYYRSKWLYDYAVSVKSRITVNPDTSRNQFTLQLNSVTPEDTALYYCARGYSSSFDYWGQGTLVTVSS
VL: QSALTQPASVSGSPGQSITISCTGTSSNIGTYKFVSWYQQHPDKAPKVLLYEVSKRPSGVSSRFSGSKSGNTASLTISGLQAEDQADYHCVSYAGSGTLLFGGGTKLTVLG
notes: HC is IgG4 S228P, F234A, L235A, F405L, R409K; also called anti-CD3 antibody; bivalent CD3B376
response unit (RU) (B-Defensin-3 [1]): 3.1 RU
response unit (RU) (rh-CD19 [2]): 0 RU
response unit (RU) (Soy Trypsin Inhibitor): 19.5 RU
response unit (RU) (Human IgG): 0.4 RU
response unit (RU) (rh-Integrin a4b7 [3]): 0 RU
response unit (RU) (Lysozyme): 0.2 RU
binding result (B-Defensin-3 [4]): no binding
binding result (rh-CD19 [5]): no binding
binding result (rh-Integrin a4b7 [6]): no binding

Source: patent US20190359711A1 (Janssen / Centocor, published 2019)
